Positions count from the first letter of the chain named.
T1: LZTR1 R810W-FLAG (human, UniProt Q8N653 1-840)
T1 construct: Stably expressed in U87 cells by lentivirus; also called LZTR1-FLAG-R810W; LZTR1 RW; not shown: FLAG tag
T1 sequence (looked up): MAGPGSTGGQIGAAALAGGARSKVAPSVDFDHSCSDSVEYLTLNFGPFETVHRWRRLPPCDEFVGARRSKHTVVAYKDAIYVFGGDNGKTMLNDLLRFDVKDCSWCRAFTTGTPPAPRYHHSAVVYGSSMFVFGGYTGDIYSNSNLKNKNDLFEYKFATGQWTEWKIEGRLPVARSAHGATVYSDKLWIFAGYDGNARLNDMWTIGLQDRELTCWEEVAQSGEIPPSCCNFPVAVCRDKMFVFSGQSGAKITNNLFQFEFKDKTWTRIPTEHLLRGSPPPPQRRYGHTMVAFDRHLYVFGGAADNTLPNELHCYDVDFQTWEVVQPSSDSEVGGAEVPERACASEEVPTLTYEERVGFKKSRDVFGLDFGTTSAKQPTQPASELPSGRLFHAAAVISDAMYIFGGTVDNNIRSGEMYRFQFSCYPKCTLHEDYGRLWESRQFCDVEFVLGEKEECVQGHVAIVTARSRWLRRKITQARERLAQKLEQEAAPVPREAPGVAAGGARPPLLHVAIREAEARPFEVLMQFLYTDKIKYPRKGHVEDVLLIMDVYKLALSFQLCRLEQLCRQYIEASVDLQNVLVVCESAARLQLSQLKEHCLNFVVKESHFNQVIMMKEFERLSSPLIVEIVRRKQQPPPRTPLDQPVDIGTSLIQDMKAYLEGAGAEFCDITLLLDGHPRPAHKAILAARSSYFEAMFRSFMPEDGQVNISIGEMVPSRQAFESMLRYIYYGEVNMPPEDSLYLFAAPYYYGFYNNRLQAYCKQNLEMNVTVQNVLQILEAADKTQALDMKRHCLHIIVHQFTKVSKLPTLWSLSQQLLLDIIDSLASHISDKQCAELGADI

T2: LZTR1-FLAG (human, UniProt Q8N653 1-840)
T2 construct: Expressed in HEK 293T, HeLa or U87 cells; used as cell lysate; also called LZTR1 wild type-FLAG; LZTR1 WT; not shown: FLAG tag at the C-terminus
T2 sequence (looked up): T1 sequence (looked up) with W810R

B1: ARMCX2 (other, human, UniProt Q7L311 1-632, looked up)
chain: MSRVRDAGCVAAGIVIGAGAWYCVYKYTRGRDQTKKRMAKPKNRAVAGTGARARAGLRAGFTIDLGSGFSPPTPVRAEAEDRAQDEASALDTVGAEAVAPAASSAEAQSGAGSQAQEADGAGVGPKAESVVGAAMASAIAPPPGVTEALGAAEAPAMAGAPKVAEAPREAETSRAAVPPGTVVPTEAAAPTEVTEGPGVAAPTKVAEAPGVASPTEAAEAPVPATPTGAAAPTGAAESPGTSGSPRTAVVPGTSAAKKATPGAHTGAIPKATSATGAVPKGGGKGVTRSRNGGKGKGKKSKVEVDELGMGFRPGDGAAAAAAASANGGQAFLAEVPDSEEGESGWTDTESDSDSEPETQRRGRGRRPVAMQKRPFPYEIDEILGVRDLRKVLALLQKSDDPFIQQVALLTLSNNANYSCNQETIRKLGGLPIIANMINKTDPHIKEKALMAMNNLSENYENQGRLQVYMNKVMDDIMASNLNSAVQVVGLKFLTNMTITNDYQHLLVNSIANFFRLLSQGGGKIKVEILKILSNFAENPDMLKKLLSTQVPASFSSLYNSYVESEILINALTLFEIIYDNLRAEVFNYREFNKGSLFYLCTTSGVCVKKIRALANHHDLLVKVKVIKLVNKF
B2: ATG13 (other, human, UniProt O75143 1-517, looked up)
chain: METDLNSQDRKDLDKFIKFFALKTVQVIVQARLGEKICTRSSSSPTGSDWFNLAIKDIPEVTHEAKKALAGQLPAVGRSMCVEISLKTSEGDSMELEIWCLEMNEKCDKEIKVSYTVYNRLSLLLKSLLAITRVTPAYRLSRKQGHEYVILYRIYFGEVQLSGLGEGFQTVRVGTVGTPVGTITLSCAYRINLAFMSTRQFERTPPIMGIIIDHFVDRPYPSSSPMHPCNYRTAGEDTGVIYPSVEDSQEVCTTSFSTSPPSQLSSSRLSYQPAALGVGSADLAYPVVFAAGLNATHPHQLMVPGKEGGVPLAPNQPVHGTQADQERLATCTPSDRTHCAATPSSSEDTETVSNSSEGRASPHDVLETIFVRKVGAFVNKPINQVTLTSLDIPFAMFAPKNLELEDTDPMVNPPDSPETESPLQGSLHSDGSSGGSSGNTHDDFVMIDFKPAFSKDDILPMDLGTFYREFQNPPQLSSLSIDIGAQSMAEDLDSLPEKLAVHEKNVREFDAFVETLQ
B3: BRAT1 (other, human, UniProt Q6PJG6 1-821, looked up)
chain: MDPECAQLLPALCAVLVDPRQPVADDTCLEKLLDWFKTVTEGESSVVLLQEHPCLVELLSHVLKVQDLSSGVLSFSLRLAGTFAAQENCFQYLQQGELLPGLFGEPGPLGRATWAVPTVRSGWIQGLRSLAQHPSALRFLADHGAVDTIFSLQGDSSLFVASAASQLLVHVLALSMRGGAEGQPCLPGGDWPACAQKIMDHVEESLCSAATPKVTQALNVLTTTFGRCQSPWTEALWVRLSPRVACLLERDPIPAAHSFVDLLLCVARSPVFSSSDGSLWETVARALSCLGPTHMGPLALGILKLEHCPQALRTQAFQVLLQPLACVLKATVQAPGPPGLLDGTADDATTVDTLLASKSSCAGLLCRTLAHLEELQPLPQRPSPWPQASLLGATVTVLRLCDGSAAPASSVGGHLCGTLAGCVRVQRAALDFLGTLSQGTGPQELVTQALAVLLECLESPGSSPTVLKKAFQATLRWLLSSPKTPGCSDLGPLIPQFLRELFPVLQKRLCHPCWEVRDSALEFLTQLSRHWGGQADFRCALLASEVPQLALQLLQDPESYVRASAVTAMGQLSSQGLHAPTSPEHAEARQSLFLELLHILSVDSEGFPRRAVMQVFTEWLRDGHADAAQDTEQFVATVLQAASRDLDWEVRAQGLELALVFLGQTLGPPRTHCPYAVALPEVAPAQPLTEALRALCHVGLFDFAFCALFDCDRPVAQKSCDLLLFLRDKIASYSSLREARGSPNTASAEATLPRWRAGEQAQPPGDQEPEAVLAMLRSLDLEGLRSTLAESSDHVEKSPQSLLQDMLATGGFLQGDEADCY
B4: ATF6 (other, human, UniProt P18850 1-670, looked up)
chain: MGEPAGVAGTMESPFSPGLFHRLDEDWDSALFAELGYFTDTDELQLEAANETYENNFDNLDFDLDLMPWESDIWDINNQICTVKDIKAEPQPLSPASSSYSVSSPRSVDSYSSTQHVPEELDLSSSSQMSPLSLYGENSNSLSSAEPLKEDKPVTGPRNKTENGLTPKKKIQVNSKPSIQPKPLLLPAAPKTQTNSSVPAKTIIIQTVPTLMPLAKQQPIISLQPAPTKGQTVLLSQPTVVQLQAPGVLPSAQPVLAVAGGVTQLPNHVVNVVPAPSANSPVNGKLSVTKPVLQSTMRNVGSDIAVLRRQQRMIKNRESACQSRKKKKEYMLGLEARLKAALSENEQLKKENGTLKRQLDEVVSENQRLKVPSPKRRVVCVMIVLAFIILNYGPMSMLEQDSRRMNPSVSPANQRRHLLGFSAKEAQDTSDGIIQKNSYRYDHSVSNDKALMVLTEEPLLYIPPPPCQPLINTTESLRLNHELRGWVHRHEVERTKSRRMTNNQQKTRILQGALEQGSNSQLMAVQYTETTSSISRNSGSELQVYYASPRSYQDFFEAIRRRGDTFYVVSFRRDHLLLPATTHNKTTRPKMSIVLPAININENVINGQDYEVMMQIDCQVMDTRILHIKSSSVPPYLRDQQRNQTNTFFGSPPAATEATHVVSTIPESLQ
B5: ATF6B (other, human, UniProt Q99941 2-703, looked up)
chain: AELMLLSEIADPTRFFTDNLLSPEDWGLQNSTLYSGLDEVAEEQTQLFRCPEQDVPFDGSSLDVGMDVSPSEPPWELLPIFPDLQVKSEPSSPCSSSSLSSESSRLSTEPSSEALGVGEVLHVKTESLAPPLCLLGDDPTSSFETVQINVIPTSDDSSDVQTKIEPVSPCSSVNSEASLLSADSSSQAFIGEEVLEVKTESLSPSGCLLWDVPAPSLGAVQISMGPSLDGSSGKALPTRKPPLQPKPVVLTTVPMPSRAVPPSTTVLLQSLVQPPPVSPVVLIQGAIRVQPEGPAPSLPRPERKSIVPAPMPGNSCPPEVDAKLLKRQQRMIKNRESACQSRRKKKEYLQGLEARLQAVLADNQQLRRENAALRRRLEALLAENSELKLGSGNRKVVCIMVFLLFIAFNFGPVSISEPPSAPISPRMNKGEPQPRRHLLGFSEQEPVQGVEPLQGSSQGPKEPQPSPTDQPSFSNLTAFPGGAKELLLRDLDQLFLSSDCRHFNRTESLRLADELSGWVQRHQRGRRKIPQRAQERQKSQPRKKSPPVKAVPIQPPGPPERDSVGQLQLYRHPDRSQPAFLDAIDRREDTFYVVSFRRDHLLLPAISHNKTSRPKMSLVMPAMAPNETLSGRGAPGDYEEMMQIECEVMDTRVIHIKTSTVPPSLRKQPSPTPGNATGGPLPVSAASQAHQASHQPLYLNHP

Target: T1, LZTR1 R810W-FLAG
Assay: IP/MS, LZTR1 R810W-FLAG, U87
Protocol: (§1) Lysates were immunoprecipitated with FLAG affinity matrix and eluted with FLAG peptide. […] Protein gel slices were excised and in-gel digestion performed as previously described (83), with minor modifications. Gel slices were washed with 1:1 A cetonitrile and 100 mM ammonium bicarbonate for 30 min then dehydrated with 100% acetonitrile for 10 min until shrunk. The excess acetonitrile was then removed and the slices dried in speed-vacuum at room temperature for 10 min. Gel slices were reduced with 5 mM DTT for 30 min at 56° C. in an air thermostat, cooled down to room temperature, and alkylated with 11 mM IAA for 30 min with no light. Gel slices were then washed with 100 mM of ammonium bicarbonate and 100% acetonitrile for 10 min each. Excess acetonitrile was removed and dried in a speed-vacuum for 10 min at room temperature and the gel slices were re-hydrated in a solution of 25 ng/μl trypsin in 50 mM ammonium bicarbonate for 30 min on ice and digested overnight at 37° C. in an air thermostat. Digested peptides were collected and further extracted from gel slices in extraction buffer (1:2 ratio by volume of 5% formic acid:acetonitrile) at high speed, shaking in an air thermostat. The supernatants from both extractions were combined and dried in a speed-vacuum. Peptides were dissolved in 3% acetonitrile/0.1% formic acid. Desalted peptides were injected in an EASY-Spray™ PepMap™ RSLC C18 50 cm×[…] column (Thermo Scientific) connected to an Orbitrap Fusion™ Tribrid™ (Thermo Scientific) as described in “Global ubiquitylation enrichment” section. The following modifications were used for protein identification and quantification: oxidation of methionine (M), acetylation of the protein N-terminus, and deamination for asparagine or glutamine (NQ). Results obtained from MaxQuant were assembled in Scaffold for data visualization.

binding result | Binder
binds | B1
binds | B2
binds | B3
binds | B4
binds | B5

Target: T2, LZTR1-FLAG
Assay: IP/MS, LZTR1 wild type-FLAG, U87
Protocol: as §1

binding result | Binder
binds | B1
binds | B2
binds | B3
binds | B4
binds | B5

From US20250262210A1 (TRUSTEES OF COLUMBIA UNIVERSITY IN THE CITY OF NEW YORK, published 2025)
